Source: US20170313750A1 (Novo Nordisk, published 2017)
Numbered stars: 1 amine (or outer) side, 2 acyl side, 3 side chain; on linkers, the order of the positions; unused ones are H or OH. Side chains are listed from the residue outwards. * marks the point of attachment. C18 diacid = O=C(O)CCCCCCCCCCCCCCCCC(=O)*; γGlu = O=C(O)[C@H](CCC(=O)[*:2])N[*:1]; Isovaleryl = CC(C)CC(=O)*; AEEA = NCCOCCOCC(=O)O

What was measured:
[1] = target: human Y4 receptor (P50391, NPY4R_HUMAN, Uniprot) (human) (UniProt P50391); assay: ratio of SPA values, Y2 as reference
[2] = target: T1, human Y1 receptor (P25929, NPY1R_HUMAN, Uniprot) (human, UniProt P25929 1-384); assay: SPA vs [125I]-PYY(1-36)
T1 construct: whole, on cells; Assayed as membrane preparations of the expressing cells; also called NPY-Y1 receptor
T1 sequence (looked up): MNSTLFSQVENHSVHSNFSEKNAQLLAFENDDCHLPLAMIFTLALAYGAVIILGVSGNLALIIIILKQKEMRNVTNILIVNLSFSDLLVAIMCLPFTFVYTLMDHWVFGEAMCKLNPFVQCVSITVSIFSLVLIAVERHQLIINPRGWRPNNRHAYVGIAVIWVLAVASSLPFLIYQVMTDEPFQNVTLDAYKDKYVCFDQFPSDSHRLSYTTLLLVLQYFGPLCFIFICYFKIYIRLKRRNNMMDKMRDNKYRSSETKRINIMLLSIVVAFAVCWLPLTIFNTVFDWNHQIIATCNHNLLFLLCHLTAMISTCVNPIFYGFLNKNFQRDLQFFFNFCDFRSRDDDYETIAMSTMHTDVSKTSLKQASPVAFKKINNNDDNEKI
Method: (§1) Human Y receptor SPA binding assay were performed in white 96-well plates in a total volume of 200 μl per well.
(§2) Plates were sealed and incubated at +25° C. for 2 hours in a plate shaker set at 400 rpm and thereafter centrifuged at 1500 rpm for 10 minutes prior to reading of luminescence on a microplate scintillation and luminescence counter.

[3] = target: T2, human Y4 receptor (P50391, NPY4R_HUMAN, Uniprot) (human, UniProt P50391 1-375); assay: SPA vs [125I]-PP
T2 construct: whole, on cells; Assayed as membrane preparations of the expressing cells
Method: as §1, §2

[4] = target: T3, human Y2 receptor (P49146, NPY2R_HUMAN, Uniprot) (human, UniProt P49146 1-381); assay: cell-based or functional assay
T3 sequence (looked up): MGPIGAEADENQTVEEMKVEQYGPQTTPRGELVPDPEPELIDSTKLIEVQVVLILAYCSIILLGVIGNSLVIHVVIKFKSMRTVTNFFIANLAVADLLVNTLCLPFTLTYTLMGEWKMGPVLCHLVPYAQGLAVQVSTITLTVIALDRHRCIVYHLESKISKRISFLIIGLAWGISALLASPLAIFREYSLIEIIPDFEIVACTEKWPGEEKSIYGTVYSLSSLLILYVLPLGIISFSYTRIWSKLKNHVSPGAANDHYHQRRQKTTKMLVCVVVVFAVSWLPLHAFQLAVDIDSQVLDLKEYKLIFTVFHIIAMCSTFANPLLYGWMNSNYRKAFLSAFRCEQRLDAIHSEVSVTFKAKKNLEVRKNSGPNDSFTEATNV

[5] = target: T3, human Y2 receptor (P49146, NPY2R_HUMAN, …); assay: SPA vs [125I]-PYY(1-36)
Method: as §1, §2

[6] = target: T4, human Y5 receptor (Q15761, NPY5R_HUMAN, Uniprot) (human, UniProt Q15761 1-445); assay: SPA vs [125I]-PYY(1-36)
T4 construct: whole, on cells; Assayed as membrane preparations of the expressing cells
T4 sequence (looked up): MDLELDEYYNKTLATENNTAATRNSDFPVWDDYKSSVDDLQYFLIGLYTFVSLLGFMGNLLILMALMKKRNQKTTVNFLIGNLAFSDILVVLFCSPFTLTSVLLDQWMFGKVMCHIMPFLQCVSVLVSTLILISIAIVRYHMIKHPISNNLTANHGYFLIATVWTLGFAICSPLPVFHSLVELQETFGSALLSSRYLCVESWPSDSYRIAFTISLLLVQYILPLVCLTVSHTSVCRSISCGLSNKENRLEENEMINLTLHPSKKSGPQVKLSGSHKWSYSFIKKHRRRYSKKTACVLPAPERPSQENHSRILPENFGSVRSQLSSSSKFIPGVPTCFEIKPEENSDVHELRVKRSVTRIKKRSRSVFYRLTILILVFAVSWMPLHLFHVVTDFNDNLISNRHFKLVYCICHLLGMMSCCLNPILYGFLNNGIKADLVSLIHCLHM
Method: as §1, §2

[7] = target: T2, human Y4 receptor (P50391, NPY4R_HUMAN, …); assay: ratio of SPA values, Y2 as reference
Method: as §1, §2

[8] = target: T4, human Y5 receptor (Q15761, NPY5R_HUMAN, …); assay: ratio of SPA values, Y2 as reference
Method: as §1, §2

T2 sequence (P50391 whole entry): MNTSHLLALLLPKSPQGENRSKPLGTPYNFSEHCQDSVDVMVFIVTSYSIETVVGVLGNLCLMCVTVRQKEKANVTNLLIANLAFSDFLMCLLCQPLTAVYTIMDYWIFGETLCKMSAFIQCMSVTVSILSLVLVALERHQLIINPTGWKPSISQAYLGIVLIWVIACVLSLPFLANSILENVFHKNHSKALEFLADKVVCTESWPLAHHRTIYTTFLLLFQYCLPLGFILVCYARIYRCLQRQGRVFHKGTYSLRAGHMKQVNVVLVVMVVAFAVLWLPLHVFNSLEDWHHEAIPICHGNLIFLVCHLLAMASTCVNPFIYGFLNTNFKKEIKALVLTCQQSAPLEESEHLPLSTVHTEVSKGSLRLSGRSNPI
Chain of human Y4 receptor (P50391, NPY4R_HUMAN, Uniprot) (human) (P50391 whole entry): as above

N{alpha-4}-(3-Methylbutanoyl)-N{Epsilon-7}-[2-[2-[2-[[2-[2-[2-[[2-[2-[2-[[2-[2-[2-[[(4S)-4-carboxy-4-(17-carboxyheptadecanoylamino)butanoyl]amino]-ethoxy]ethoxy]acetyl]amino]ethoxy]ethoxy]acetyl]amino]ethoxy]ethoxy]acetyl]amino]ethoxy]ethoxy]acetyl]-[Arg4,Lys7,Pro9,Gln18,Tyr28,Trp30,Leu31]-PYY(4-36) (peptide)
Ratio of Y4/Y2 SPA binding values [1]: > 18300

B1: N{alpha-4}-(3-Methylbutanoyl)-N{Epsilon-7}-[2-[2-[2-[[2-[2-[2-[[(4S)-4-carboxy-4-(17-carboxyheptadecanoylamino)butanoyl]amino]ethoxy]ethoxy]acetyl]amino]-ethoxy … (peptide)
peptide: RPEKPTEDASPEELQRYYASLRHYYNWLTRQRY
modifications: N-terminal alpha-amino (position 4): 3-methylbutanoyl; Lys7 (hPYY(1-36) numbering) epsilon-amino: [2-[2-[2-[[2-[2-[2-[[(4S)-4-carboxy-4-(17-carboxyheptadecanoylamino)butanoyl]amino]ethoxy]ethoxy]acetyl]amino]ethoxy]ethoxy]acetyl]; C-terminal amide
notes: also called Compound 14; 14
Ki [2]: 8820 nM

B2: N{alpha-4}-(3-Methylbutanoyl)-N{Epsilon-10}-[(4S)-4-carboxy-4-[[2-[2-[2-[[(4S)-4-carboxy-4-(17-carboxyheptadecanoylamino)butanoyl]amino]ethoxy]ethoxy]-acetyl]am … (peptide)
peptide: Isovaleryl-RPEAPPK([γGlu-AEEA-γGlu-C18 diacid])DASPEELQRYYASLRHYYNWLTRQRY-NH2
SMILES: CC(C)CC(=O)N[C@@H](CCCNC(=N)N)C(=O)N1CCC[C@H]1C(=O)N[C@@H](CCC(=O)O)C(=O)N[C@@H](C)C(=O)N1CCC[C@H]1C(=O)N1CCC[C@H]1C(=O)N[C@@H](CCCCNC(=O)CC[C@H](NC(=O)COCCOCCNC(=O)CC[C@H](NC(=O)CCCCCCCCCCCCCCCCC(=O)O)C(=O)O)C(=O)O)C(=O)N[C@@H](CC(=O)O)C(=O)N[C@@H](C)C(=O)N[C@@H](CO)C(=O)N1CCC[C@H]1C(=O)N[C@@H](CCC(=O)O)C(=O)N[C@@H](CCC(=O)O)C(=O)N[C@@H](CC(C)C)C(=O)N[C@@H](CCC(N)=O)C(=O)N[C@@H](CCCNC(=N)N)C(=O)N[C@@H](Cc1ccc(O)cc1)C(=O)N[C@@H](Cc1ccc(O)cc1)C(=O)N[C@@H](C)C(=O)N[C@@H](CO)C(=O)N[C@@H](CC(C)C)C(=O)N[C@@H](CCCNC(=N)N)C(=O)N[C@@H](Cc1c[nH]cn1)C(=O)N[C@@H](Cc1ccc(O)cc1)C(=O)N[C@@H](Cc1ccc(O)cc1)C(=O)N[C@@H](CC(N)=O)C(=O)N[C@@H](Cc1c[nH]c2ccccc12)C(=O)N[C@@H](CC(C)C)C(=O)N[C@H](C(=O)N[C@@H](CCCNC(=N)N)C(=O)N[C@@H](CCC(N)=O)C(=O)N[C@@H](CCCNC(=N)N)C(=O)N[C@@H](Cc1ccc(O)cc1)C(N)=O)[C@@H](C)O
notes: also called Compound 56; 56
Ki [3]: 4410 nM
Y2 EC50, Actone functional potency assay [4]: 0.54 nM
Ki [5]: 1.4 nM
Ki [6]: 279 nM
Ratio of Y4/Y2 EC50 values [7]: 3060
Ratio of Y5/Y2 EC50 values [8]: 193

B3: N{alpha-4}-(3-Methylbutanoyl)-N{Epsilon-10}-[(4S)-4-carboxy-4-[[2-[2-[2-[[(4S)-4-carboxy-4-(17-carboxyheptadecanoylamino)butanoyl]amino]ethoxy]ethoxy]-acetyl]am … (peptide)
peptide: Isovaleryl-RPEAPPK([γGlu-AEEA-γGlu-C18 diacid])DASPEELQRYYESLRHYYNWLTRQRY-NH2
notes: also called Compound 54; 54
Ki [3]: 5910 nM
Y2 EC50, Actone functional potency assay [4]: 1.6 nM
Ki [2]: 2420 nM
Ki [5]: 3.1 nM
Ki [6]: 254 nM

B4: N{alpha-4}-(3-Methylbutanoyl)-N{Epsilon-10}-[2-[2-[2-[[2-[2-[2-[[(4S)-4-carboxy-4-(17-carboxyheptadecanoylamino)butanoyl]amino]ethoxy]ethoxy]acetyl]-amino]ethox … (peptide)
peptide: Isovaleryl-RPEAPGK([AEEA-AEEA-γGlu-C18 diacid])DASPEELQRYYESLRHYYNWLTRQRY-NH2
SMILES: CC(C)CC(=O)N[C@@H](CCCNC(=N)N)C(=O)N1CCC[C@H]1C(=O)N[C@@H](CCC(=O)O)C(=O)N[C@@H](C)C(=O)N1CCC[C@H]1C(=O)NCC(=O)N[C@@H](CCCCNC(=O)COCCOCCNC(=O)COCCOCCNC(=O)CC[C@H](NC(=O)CCCCCCCCCCCCCCCCC(=O)O)C(=O)O)C(=O)N[C@@H](CC(=O)O)C(=O)N[C@@H](C)C(=O)N[C@@H](CO)C(=O)N1CCC[C@H]1C(=O)N[C@@H](CCC(=O)O)C(=O)N[C@@H](CCC(=O)O)C(=O)N[C@@H](CC(C)C)C(=O)N[C@@H](CCC(N)=O)C(=O)N[C@@H](CCCNC(=N)N)C(=O)N[C@@H](Cc1ccc(O)cc1)C(=O)N[C@@H](Cc1ccc(O)cc1)C(=O)N[C@@H](CCC(=O)O)C(=O)N[C@@H](CO)C(=O)N[C@@H](CC(C)C)C(=O)N[C@@H](CCCNC(=N)N)C(=O)N[C@@H](Cc1c[nH]cn1)C(=O)N[C@@H](Cc1ccc(O)cc1)C(=O)N[C@@H](Cc1ccc(O)cc1)C(=O)N[C@@H](CC(N)=O)C(=O)N[C@@H](Cc1c[nH]c2ccccc12)C(=O)N[C@@H](CC(C)C)C(=O)N[C@H](C(=O)N[C@@H](CCCNC(=N)N)C(=O)N[C@@H](CCC(N)=O)C(=O)N[C@@H](CCCNC(=N)N)C(=O)N[C@@H](Cc1ccc(O)cc1)C(N)=O)[C@@H](C)O
notes: also called Compound 51; 51
Y2 EC50, Actone functional potency assay [4]: 0.99 nM
Ki [2]: 2400 nM
Ki [5]: 2.3 nM
Ki [6]: 116 nM
Ratio of Y4/Y2 EC50 values [7]: > 4350
Ratio of Y5/Y2 EC50 values [8]: 50
